B1: POLD4 (parent)
chain: ITDSYPVVKRREGPAGHSKGELAP

Variants of: B1
Assay: protein stability index of a GFP-peptide fusion (GPS, HEK-293T) (PSI 1-6); higher = more stable
Conditions: c terminus: a fixed tail appended
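Note: lentivirally expressed fusions sorted by FACS into six bins by GFP to DsRed ratio, PSI derived from sequencing read proportions per bin multiplied by bin number.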

Going from ITWSYPVVKRREGPAGHSKGELAP [D3W] to ITGSYPVVKRREGPAGHSKGELAP [D3G], the protein stability index rises from 1.99 to 4.07.

Going from ITCSYPVVKRREGPAGHSKGELAP [D3C] to ITTSYPVVKRREGPAGHSKGELAP [D3T], the protein stability index rises from 1.78 to 4.2.

Compared with ITFSYPVVKRREGPAGHSKGELAP [D3F], ITSSYPVVKRREGPAGHSKGELAP [D3S] is lower in protein stability index: 3.39 for the first, 2.68 for the second.

Going from ITHSYPVVKRREGPAGHSKGELAP [D3H] to ITVSYPVVKRREGPAGHSKGELAP [D3V], the protein stability index falls from 2.97 to 2.

First: ITKSYPVVKRREGPAGHSKGELAP [D3K]
Second: ITDSYPVIKRREGPAGHSKGELAP [V8I]
The protein stability index of the first is higher: 3.89 for the first, 3.26 for the second.

Compared with ITDSYPVMKRREGPAGHSKGELAP [V8M], ITDSYPVDKRREGPAGHSKGELAP [V8D] is higher in protein stability index: 3.98 for the first, 5.21 for the second.

Compared with ITDSYPVCKRREGPAGHSKGELAP [V8C], ITDSYPVTKRREGPAGHSKGELAP [V8T] is higher in protein stability index: 3.79 for the first, 4.42 for the second.

Going from ITDSYPVPKRREGPAGHSKGELAP [V8P] to ITDSYPVYKRREGPAGHSKGELAP [V8Y], the protein stability index falls from 4.35 to 4.34.

Compared with ITDSYPVHKRREGPAGHSKGELAP [V8H], ITDSYPVKKRREGPAGHSKGELAP [V8K] is lower in protein stability index: 4.07 for the first, 3.2 for the second.

Compared with ITDSYPVEKRREGPAGHSKGELAP [V8E], ITDSYPVRKRREGPAGHSKGELAP [V8R] is lower in protein stability index: 5.31 for the first, 2.88 for the second.

First: ITDSYPVQKRREGPAGHSKGELAP [V8Q]
Second: ITDSYPVFKRREGPAGHSKGELAP [V8F]
The protein stability index of the first is lower: 3.1 for the first, 4.32 for the second.

Compared with ITDSYPVWKRREGPAGHSKGELAP [V8W], ITDSYPVNKRREGPAGHSKGELAP [V8N] is higher in protein stability index: 3.16 for the first, 4.21 for the second.

Compared with ITDSYPVSKRREGPAGHSKGELAP [V8S], ITDSYPVVKRREYPAGHSKGELAP [G13Y] is lower in protein stability index: 4.84 for the first, 3.11 for the second.

Going from ITDSYPVVKRREQPAGHSKGELAP [G13Q] to ITDSYPVVKRREHPAGHSKGELAP [G13H], the protein stability index falls from 3.32 to 3.24.

First: ITDSYPVVKRREIPAGHSKGELAP [G13I]
Second: ITDSYPVVKRREPPAGHSKGELAP [G13P]
The protein stability index of the first is lower: 2.7 for the first, 4.43 for the second.

Compared with ITDSYPVVKRREDPAGHSKGELAP [G13D], ITDSYPVVKRRECPAGHSKGELAP [G13C] is lower in protein stability index: 3.94 for the first, 3.87 for the second.

Going from ITDSYPVVKRREVPAGHSKGELAP [G13V] to ITDSYPVVKRRETPAGHSKGELAP [G13T], the protein stability index rises from 2.62 to 3.19.

Compared with ITDSYPVVKRRESPAGHSKGELAP [G13S], ITDSYPVVKRREAPAGHSKGELAP [G13A] is lower in protein stability index: 3.22 for the first, 2.92 for the second.

Compared with ITDSYPVVKRREFPAGHSKGELAP [G13F], ITDSYPVVKRRELPAGHSKGELAP [G13L] is higher in protein stability index: 2.45 for the first, 2.75 for the second.

Compared with ITDSYPVVKRRENPAGHSKGELAP [G13N], ITDSYPVVKRREWPAGHSKGELAP [G13W] is lower in protein stability index: 2.78 for the first, 2.5 for the second.

First: ITDSYPVVKRRERPAGHSKGELAP [G13R]
Second: ITDSYPVVKRREEPAGHSKGELAP [G13E]
The protein stability index of the first is lower: 3.7 for the first, 3.86 for the second.

Compared with ITDSYPTVKRREGPAGHSKGELAP [V7T], ITDSYPGVKRREGPAGHSKGELAP [V7G] is higher in protein stability index: 4.18 for the first, 4.93 for the second.

Going from ITDSYPFVKRREGPAGHSKGELAP [V7F] to ITDSYPIVKRREGPAGHSKGELAP [V7I], the protein stability index falls from 3.45 to 3.42.

Compared with ITDSYPPVKRREGPAGHSKGELAP [V7P], ITDSYPAVKRREGPAGHSKGELAP [V7A] is lower in protein stability index: 5.22 for the first, 4.02 for the second.

Compared with ITDSYPCVKRREGPAGHSKGELAP [V7C], ITDSYPEVKRREGPAGHSKGELAP [V7E] is higher in protein stability index: 3.63 for the first, 5.27 for the second.

Going from ITDSYPSVKRREGPAGHSKGELAP [V7S] to ITDSYPYVKRREGPAGHSKGELAP [V7Y], the protein stability index falls from 4.76 to 4.14.

First: ITDSYPWVKRREGPAGHSKGELAP [V7W]
Second: ITDSYPKVKRREGPAGHSKGELAP [V7K]
The protein stability index of the first is higher: 4.17 for the first, 3.56 for the second.

Compared with ITDSYPQVKRREGPAGHSKGELAP [V7Q], ITDSYPDVKRREGPAGHSKGELAP [V7D] is higher in protein stability index: 3.79 for the first, 4.8 for the second.

Compared with ITDSYPHVKRREGPAGHSKGELAP [V7H], ITDSYPNVKRREGPAGHSKGELAP [V7N] is lower in protein stability index: 4.4 for the first, 4.2 for the second.

Compared with ITDSYPLVKRREGPAGHSKGELAP [V7L], ITDSYPVVKIREGPAGHSKGELAP [R10I] is lower in protein stability index: 3.44 for the first, 3.38 for the second.

Going from ITDSYPVVKGREGPAGHSKGELAP [R10G] to ITDSYPVVKPREGPAGHSKGELAP [R10P], the protein stability index rises from 4.21 to 4.68.

Going from ITDSYPVVKMREGPAGHSKGELAP [R10M] to ITDSYPVVKDREGPAGHSKGELAP [R10D], the protein stability index rises from 3.16 to 4.98.

Going from ITDSYPVVKHREGPAGHSKGELAP [R10H] to ITDSYPVVKAREGPAGHSKGELAP [R10A], the protein stability index rises from 4.33 to 4.56.

Going from ITDSYPVVKYREGPAGHSKGELAP [R10Y] to ITDSYPVVKCREGPAGHSKGELAP [R10C], the protein stability index falls from 4.05 to 3.79.

First: ITDSYPVVKSREGPAGHSKGELAP [R10S]
Second: ITDSYPVVKKREGPAGHSKGELAP [R10K]
The protein stability index of the first is higher: 3.89 for the first, 2.39 for the second.

Compared with ITDSYPVVKLREGPAGHSKGELAP [R10L], ITDSYPVVKVREGPAGHSKGELAP [R10V] is higher in protein stability index: 3.64 for the first, 3.94 for the second.

Compared with ITDSYPVVKEREGPAGHSKGELAP [R10E], ITDSYPVVKFREGPAGHSKGELAP [R10F] is lower in protein stability index: 4.8 for the first, 3.57 for the second.

First: ITDSYPVVKTREGPAGHSKGELAP [R10T]
Second: ITDSYPVVKQREGPAGHSKGELAP [R10Q]
The protein stability index of the first is lower: 3.6 for the first, 3.8 for the second.

Compared with ITDSYPVVKWREGPAGHSKGELAP [R10W], ITDSYPVVKNREGPAGHSKGELAP [R10N] is higher in protein stability index: 3.07 for the first, 3.92 for the second.

First: ITDSEPVVKRREGPAGHSKGELAP [Y5E]
Second: ITDSSPVVKRREGPAGHSKGELAP [Y5S]
The protein stability index of the first is higher: 5.69 for the first, 4.91 for the second.

Compared with ITDSDPVVKRREGPAGHSKGELAP [Y5D], ITDSKPVVKRREGPAGHSKGELAP [Y5K] is lower in protein stability index: 5.56 for the first, 5.3 for the second.

Compared with ITDSTPVVKRREGPAGHSKGELAP [Y5T], ITDSRPVVKRREGPAGHSKGELAP [Y5R] is higher in protein stability index: 3.5 for the first, 4.72 for the second.

Compared with ITDSPPVVKRREGPAGHSKGELAP [Y5P], ITDSVPVVKRREGPAGHSKGELAP [Y5V] is lower in protein stability index: 5.13 for the first, 4.23 for the second.

Going from ITDSNPVVKRREGPAGHSKGELAP [Y5N] to ITDSHPVVKRREGPAGHSKGELAP [Y5H], the protein stability index rises from 4.98 to 5.39.

First: ITDSLPVVKRREGPAGHSKGELAP [Y5L]
Second: ITDSIPVVKRREGPAGHSKGELAP [Y5I]
The protein stability index of the first is lower: 4.59 for the first, 4.84 for the second.

Going from ITDSMPVVKRREGPAGHSKGELAP [Y5M] to ITDSQPVVKRREGPAGHSKGELAP [Y5Q], the protein stability index rises from 3.5 to 5.68.

First: ITDSCPVVKRREGPAGHSKGELAP [Y5C]
Second: ITDSWPVVKRREGPAGHSKGELAP [Y5W]
The protein stability index of the first is higher: 3.78 for the first, 3.08 for the second.

— the supplement of paper PMC10567573
